The source of these data is patent US20160002326A1 (AbbVie / Abbott, published 2016).

The target in one assay is T1, mouse TNF (mouse, UniProt P06804 80-235).
T1 construct: also called murine TNF; rodent TNF (mouse)
T1 sequence (looked up): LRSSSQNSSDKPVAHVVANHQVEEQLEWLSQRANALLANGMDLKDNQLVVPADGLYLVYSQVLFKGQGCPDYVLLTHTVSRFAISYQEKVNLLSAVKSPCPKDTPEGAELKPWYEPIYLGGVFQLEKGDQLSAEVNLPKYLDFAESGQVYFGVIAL
The assay is described as follows: assay not stated (Table 5, 'Source And Binding Information').

The next assay addresses T2, mouse IL-17 (mouse, UniProt Q62386 26-158, limits assumed).
T2 construct: also called mouse IL-17A; rodent IL-17 (mouse)
T2 sequence (looked up): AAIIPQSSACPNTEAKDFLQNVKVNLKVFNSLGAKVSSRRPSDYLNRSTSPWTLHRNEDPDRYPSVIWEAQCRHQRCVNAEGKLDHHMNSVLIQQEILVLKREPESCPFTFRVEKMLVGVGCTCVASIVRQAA
Described as above.

B1: 8C11/10F7M11 anti-TNF/IL-17 DVD-Ig protein (bispecific antibody, human IgG1, kappa, L234A L235A)
heavy: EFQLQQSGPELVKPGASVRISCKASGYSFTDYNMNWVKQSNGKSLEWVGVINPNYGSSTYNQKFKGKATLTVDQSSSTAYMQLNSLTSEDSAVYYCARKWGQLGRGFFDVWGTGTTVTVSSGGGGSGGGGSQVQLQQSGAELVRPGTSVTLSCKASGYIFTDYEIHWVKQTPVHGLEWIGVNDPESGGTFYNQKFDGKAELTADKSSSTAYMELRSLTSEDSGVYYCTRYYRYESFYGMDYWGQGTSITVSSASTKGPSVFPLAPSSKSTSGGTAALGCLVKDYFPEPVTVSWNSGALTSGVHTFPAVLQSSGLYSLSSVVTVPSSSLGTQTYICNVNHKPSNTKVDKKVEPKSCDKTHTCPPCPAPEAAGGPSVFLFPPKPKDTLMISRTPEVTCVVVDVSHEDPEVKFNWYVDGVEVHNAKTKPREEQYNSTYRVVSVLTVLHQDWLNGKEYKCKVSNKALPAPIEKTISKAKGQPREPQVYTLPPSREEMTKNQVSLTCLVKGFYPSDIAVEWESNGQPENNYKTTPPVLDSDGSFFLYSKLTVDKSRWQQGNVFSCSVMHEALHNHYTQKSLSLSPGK
light: QIVLSQSPAILSASPGEKVTMTCRASSSVSYMHWFQQKPGSSPKPWIYATSNLASGVPARFSGSGSGTSYSLTISRVEAEDAATYYCQQWSSSPLTFGAGTKLELKRGGSGGGGSGQIVLTQSPAIMSASPGEKVTMTCSASSSISYIYWFQQKPGTSPKRWIYATFELASGVPARFSGSGSGTSYSLTISSMEAEDAATYYCHQRSSYPWTFGGGSKLEIKRTVAAPSVFIFPPSDEQLKSGTASVVCLLNNFYPREAKVQWKVDNALQSGNSQESVTEQDSKDSTYSLSSTLTLSKADYEKHKVYACEVTHQGLSSPVTKSFNRGEC
notes: also called 8C11/10F7 DVD-Ig protein; anti-mouse TNF/IL-17 DVD-Ig
For B1, the IC50 (commonly the concentration at which inhibition is half-maximal) in the assay with mouse TNF worked out at 2 nM; with mouse IL-17 it was 0.13 nM.

B2: anti-murine TNF antibody 8C11 (antibody, mouse IgG2c, V domains shown)
VH: EFQLQQSGPELVKPGASVRISCKASGYSFTDYNMNWVKQSNGKSLEWVGVINPNYGSSTYNQKFKGKATLTVDQSSSTAYMQLNSLTSEDSAVYYCARKWGQLGRGFFDVWGTGTTVTVSS
VL: QIVLSQSPAILSASPGEKVTMTCRASSSVSYMHWFQQKPGSSPKPWIYATSNLASGVPARFSGSGSGTSYSLTISRVEAEDAATYYCQQWSSSPLTFGAGTKLELKR
notes: also called 8C11 anti-TNF Ab; Anti-TNF
Turning to B2, the IC50 with mouse TNF is 2 nM.
